Experimental data: PMC4561914 (Scientific Reports, 2015)

Target: the molecule itself
Test: native MS; rBos d 2 in 10 mM ammonium acetate, pH 6.9; protein (monomer) concentration 0-90 μM; monomer-dimer ratio from ion intensities, fit of free monomer against total protein; dimer to monomers

B1: recombinant bovine dander lipocalin allergen Bos d 2 (natural protein, bovine (cow), UniProt Q28133 17-172, looked up)
chain: QETPAEIDPSKIPGEWRIIYAAADNKDKIVEGGPLRNYYRRIECINDCESLSITFYLKDQGTCLLLTEVAKRQEGYVYVLEFYGTNTLEVIHVSENMLVTYVENYDGERITKMTEGLAKGTSFTPEELEKYQQLNSERGVPNENIENLIKTDNCPP
modifications: a substantial amount of the molecules contained a pyrrolidone carboxylic acid (PCA) formed by cyclization of the N-terminal glutamine; partly oxidized, probably at a single methionine; two disulfide bonds
notes: Bos d 2, bovine (cow) dander lipocalin allergen; also called rBos d 2
  Kd: 340 ± 20 µM
  stoichiometry N: 2
